Laboratory results from patent publication US11198713B2, “Agents modulating beta-catenin functions and methods thereof” (FOG PHARMACEUTICALS, INC., priority 2017, dated 2021).
Bridge positions count the residues as written; N and C are the ends. Square brackets hold non-standard residues; d marks the D form. Primed or numbered codes have the meaning given here. MB(8) = Monomer B (PyrS), pyrrolidine stapling residue bearing N-allyl carbamate (Alloc), forms carbamate staple with R8 by ring-closing olefin metathesis, i to i+7; MB(9) = Monomer B (PyrS), pyrrolidine stapling residue with N-allyloxycarbonyl (Alloc), forms a carbamate staple with R8 by olefin metathesis; MB″ = Monomer B (PyrS), pyrrolidine stapling residue with N-allyl carbamate, forms carbamate staple with R8 by olefin metathesis; MB(6) = Monomer B (PyrS), N-Alloc pyrrolidine stapling residue, forms carbamate staple with R8 by olefin metathesis; MB(5) = Monomer B (PyrS), N-Alloc pyrrolidine stapling residue; Ala(2-furyl) = N[C@@H](Cc1ccco1)C(=O)O; 2Pal = N[C@@H](Cc1ccccn1)C(=O)O; R8 = C=CCCCCCC[C@@](C)(N)C(=O)O; 2Thi = N[C@@H](Cc1cccs1)C(=O)O; Cha = N[C@@H](CC1CCCCC1)C(=O)O; Cba = N[C@@H](CC1CCC1)C(=O)O; Tle = CC(C)(C)[C@H](N)C(=O)O; Nva = CCC[C@H](N)C(=O)O

T1: full-length beta-catenin (UniProt P35222 2-781, limits assumed)
T1 construct: mature; also called full-length ß-Catenin; β-catenin
T1 sequence (looked up): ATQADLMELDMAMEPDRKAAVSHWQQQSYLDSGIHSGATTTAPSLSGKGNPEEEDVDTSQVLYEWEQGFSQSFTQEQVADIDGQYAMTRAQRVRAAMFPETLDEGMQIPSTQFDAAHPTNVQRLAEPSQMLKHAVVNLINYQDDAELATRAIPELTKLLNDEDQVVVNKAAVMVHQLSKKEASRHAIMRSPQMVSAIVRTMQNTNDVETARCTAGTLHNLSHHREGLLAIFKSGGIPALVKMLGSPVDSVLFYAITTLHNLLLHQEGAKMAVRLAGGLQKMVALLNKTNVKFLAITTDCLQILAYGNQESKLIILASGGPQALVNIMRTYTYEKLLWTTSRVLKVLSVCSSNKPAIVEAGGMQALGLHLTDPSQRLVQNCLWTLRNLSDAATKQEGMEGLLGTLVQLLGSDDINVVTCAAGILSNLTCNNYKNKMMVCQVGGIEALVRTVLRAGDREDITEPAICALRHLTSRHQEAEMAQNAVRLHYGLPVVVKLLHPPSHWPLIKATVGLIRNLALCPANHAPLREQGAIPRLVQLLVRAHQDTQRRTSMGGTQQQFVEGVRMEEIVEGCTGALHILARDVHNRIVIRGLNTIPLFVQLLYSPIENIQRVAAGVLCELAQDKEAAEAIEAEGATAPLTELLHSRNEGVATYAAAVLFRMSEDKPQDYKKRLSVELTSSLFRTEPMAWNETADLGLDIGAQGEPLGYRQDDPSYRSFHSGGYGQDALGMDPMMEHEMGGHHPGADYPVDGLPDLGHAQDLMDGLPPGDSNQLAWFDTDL


target: T1, full-length beta-catenin; assay: competition FP; NB = no binding detected
Experimental: In some embodiments, a competition fluorescence polarization assay is used to assess binding of provided compounds to beta-catenin. In an exemplary procedure, solutions of provided compounds, e.g., provided stapled peptides, were prepared in a buffer (e.g., 50 mM Tris pH 8.0, 250 mM NaCl, 2% glycerol, 0.5 mM EDTA, 0.02% w/v sodium azide) using a 3-fold serial dilution from 5 µM. Probe solution (15 nM full-length ß-Catenin, 20 nM FITC labeled peptide in buffer) was prepared and incubated for a period of time, e.g., 5 minutes, and the a volume, e.g., 40 µL per well plated in suitable plate, e.g., a black polystyrene 384-well plate (Corning). Equal volume of the serial diluted peptide was added to the plate and incubated protected from light for 15 minutes prior to read. Reads were performed on a Spectramax M5 (Molecular Devices) in duplicate. Suitable probe was FITC-PEG1-PQ-S5-ILD-S5-HVRRVWR (SEQ ID NO: 1) (hydrocarbon staple formed by two S5 via olefin metathesis) and/or FITC-bA-PQ-S5-ILD-S5-HVRRVWR (SEQ ID NO: 3) (hydrocarbon staple formed by two S5 via olefin metathesis). […] Another peptide, FPO217c (Ac-AR_8ILDAHIM$B5$RVW (SEQ ID NO: 280), with N-terminal proline removed and valine replaced with isoleucine compared to FP0025c) was prepared.

Row | Binder | binding result
1 | Ac-A[R8]ILDA[2Pal]I[MB(8)]SVW-NH2 (staple 2-9; not fully specified; printed as Ac-A-R8-I-L-D-A-2pyr-I-MB-S-V-W-NH2) [FP0560c Isomer 2] | no binding
2 | Ac-A[R8]ILDA[2Pal]I[MB(8)]VVW-NH2 (staple 2-9; not fully specified; printed as Ac-A-R8-I-L-D-A-2pyr-I-MB-V-V-W-NH2) [FP0562c Isomer 2] | no binding
3 | Ac-A[R8]ILDA[2Pal]I[MB(6)][Tle]VW-NH2 (staple 2-9; not fully specified; printed as Ac-A-R8-I-L-D-A-2pyr-I-MB-tLeu-V-W-NH2) [FP0568c Isomer 2] | no binding
4 | Ac-A[R8]ILDA[2Pal]I[MB(8)]VVW-NH2 (staple 2-9; not fully specified; printed as Ac-A-R8-I-L-D-A-2pyr-I-MB-V-V-W-NH2) [FP0562c Isomer 1] | no binding
5 | Ac-A[R8]ILDA[2Pal]I[MB(6)][Tle]VW-NH2 (staple 2-9; not fully specified; printed as Ac-A-R8-I-L-D-A-2pyr-I-MB-tLeu-V-W-NH2) [FP0568c Isomer 1] | no binding
6 | Ac-A[R8]ILDA[2Pal]I[MB″]YVW-NH2 (staple 2-9; not fully specified; printed as Ac-A-R8-I-L-D-A-2pyr-I-MB-Y-V-W-NH2) [FP0564c Isomer 2] | no binding
7 | Ac-A[R8]ILDA[2Pal]I[MB(6)][Cba]VW-NH2 (staple 2-9; not fully specified; printed as Ac-A-R8-I-L-D-A-2pyr-I-MB-Cba-V-W-NH2) [FP0565c Isomer 2] | no binding
8 | Ac-A[R8]ILDA[2Pal]I[MB(9)]QVW-NH2 (staple 2-9; not fully specified; printed as Ac-A-R8-I-L-D-A-2pyr-I-MB-Q-V-W-NH2) [FP0559c Isomer 1] | no binding
9 | Ac-A[R8]ILDA[2Pal]I[MB(6)][Cha]VW-NH2 (staple 2-9; not fully specified; printed as Ac-A-R8-I-L-D-A-2pyr-I-MB-Cha-V-W-NH2) [FP0566c Isomer 1] | no binding
10 | Ac-A[R8]ILDA[2Pal]I[MB(5)][2Pal]VW-NH2 (staple 2-9; not fully specified; printed as Ac-A-R8-I-L-D-A-2pyr-I-MB-2pyr-V-W-NH2) [FP0572c Isomer 1] | no binding
11 | Ac-A[R8]ILDA[2Pal]I[MB(6)][Nva]VW-NH2 (staple 2-9; not fully specified; printed as Ac-A-R8-I-L-D-A-2pyr-I-MB-Nva-V-W-NH2) [FP0567c Isomer 2] | no binding
12 | Ac-A[R8]ILDA[2Pal]I[MB″][Cba]VW-NH2 (staple 2-9; not fully specified; printed as Ac-A-R8-I-L-D-A-2pyr-I-MB-Cba-V-W-NH2) [FP0565c Isomer 1] | no binding
13 | Ac-A[R8]ILDA[2Pal]I[MB(9)]NVW-NH2 (staple 2-9; not fully specified; printed as Ac-A-R8-I-L-D-A-2pyr-I-MB-N-V-W-NH2) [FP0558c Isomer 1] | no binding
14 | Ac-A[R8]ILDA[2Pal]I[MB(6)][2Thi]VW-NH2 (staple 2-9; not fully specified; printed as Ac-A-R8-I-L-D-A-2pyr-I-MB-thi-V-W-NH2) [FP0571c Isomer 2] | no binding
15 | Ac-A[R8]ILDA[2Pal]I[MB(8)]TVW-NH2 (staple 2-9; not fully specified; printed as Ac-A-R8-I-L-D-A-2pyr-I-MB-T-V-W-NH2) [FP0561c Isomer 1] | no binding
16 | Ac-A[R8]ILDA[2Pal]I[MB(6)][2Thi]VW-NH2 (staple 2-9; not fully specified; printed as Ac-A-R8-I-L-D-A-2pyr-I-MB-thi-V-W-NH2) [FP0571c Isomer 1] | no binding
17 | Ac-A[R8]ILDA[2Pal]I[MB(6)][Ala(2-furyl)]VW-NH2 (staple 2-9; not fully specified; printed as Ac-A-R8-I-L-D-A-2pyr-I-MB-fur-V-W-NH2) [FP0569c Isomer 1] | no binding
18 | Ac-A[R8]ILDA[2Pal]I[MB(8)]SVW-NH2 (staple 2-9; not fully specified; printed as Ac-A-R8-I-L-D-A-2pyr-I-MB-S-V-W-NH2) [FP0560c Isomer 1] | no binding

The remaining lines, values ahead:

Row | binding result | Binder
19 | no binding | Ac-A[R8]ILDA[2Pal]I[MB(9)]LVW-NH2 (staple 2-9; not fully specified; printed as Ac-A-R8-I-L-D-A-2pyr-I-MB-L-V-W-NH2) [FP0557c Isomer 2]
20 | no binding | Ac-A[R8]ILDA[2Pal]I[MB″]WVW-NH2 (staple 2-9; not fully specified; printed as Ac-A-R8-I-L-D-A-2pyr-I-MB-W-V-W-NH2) [FP0563c Isomer 2]
21 | no binding | Ac-A[R8]ILDA[2Pal]I[MB(8)]TVW-NH2 (staple 2-9; not fully specified; printed as Ac-A-R8-I-L-D-A-2pyr-I-MB-T-V-W-NH2) [FP0561c Isomer 2]
22 | no binding | Ac-A[R8]ILDA[2Pal]I[MB″]YVW-NH2 (staple 2-9; not fully specified; printed as Ac-A-R8-I-L-D-A-2pyr-I-MB-Y-V-W-NH2) [FP0564c Isomer 1]
23 | no binding | Ac-A[R8]ILDA[2Pal]I[MB(8)]QVW-NH2 (staple 2-9; not fully specified; printed as Ac-A-R8-I-L-D-A-2pyr-I-MB-Q-V-W-NH2) [FP0559c Isomer 2]
24 | no binding | Ac-A[R8]ILDA[2Pal]I[MB″]WVW-NH2 (staple 2-9; not fully specified; printed as Ac-A-R8-I-L-D-A-2pyr-I-MB-W-V-W-NH2) [FP0563c Isomer 1]
25 | no binding | Ac-A[R8]ILDA[2Pal]I[MB(9)]NVW-NH2 (staple 2-9; not fully specified; printed as Ac-A-R8-I-L-D-A-2pyr-I-MB-N-V-W-NH2) [FP0558c Isomer 2]
26 | no binding | Ac-A[R8]ILDA[2Pal]I[MB(6)][Ala(2-furyl)]VW-NH2 (staple 2-9; not fully specified; printed as Ac-A-R8-I-L-D-A-2pyr-I-MB-fur-V-W-NH2) [FP0569c Isomer 2]
27 | no binding | Ac-A[R8]ILDA[2Pal]I[MB(6)][Nva]VW-NH2 (staple 2-9; not fully specified; printed as Ac-A-R8-I-L-D-A-2pyr-I-MB-Nva-V-W-NH2) [FP0567c Isomer 1]
